Test results: US20220153851A1 (Five Prime, published 2022)
Numbering of substitutions follows the chain as printed.

B1: h0311-L0H2 (antibody, human IgG4 S228P, kappa, V domains shown)
VH: QVQLVQSGAEVKKPGSSVKVSCKASGYIFTDYNMHWVRQAPGQGLEWMGEINPNNGVVVYNQKFKGTTTLTVDKSTSTAYMELSSLRSEDTAVYYCTRALYHSNFGWYFDSWGQGTLVTVSS
VL: EIVLTQSPATLSLSPGERATLSCKASQSVDYDGDSHMNWYQQKPGQAPRLLIYTASNLESGIPARFSGSGSGTDFTLTISSLEPEDFAVYYCQQGNEDPWTFGQGTKVEIKR
notes: also called Ab15; huAb 0311-L0H2
B2: h0302-L1H1 (antibody, human IgG4 S228P, kappa, V domains shown)
VH: QVQLVQSGAEVKKPGSSVKVSCKASGYTFSDFNIHWVRQAPGQGLEWMGYINPYTDVTVYNEKFKGRVTITSDKSTSTAYMELSSLRSEDTAVYYCASYFDGTFDYALDYWGQGTLVTVSS
VL: B1 VL with K24R, Q27E, Y31N, D32Y, D34L, H36F, G72R, G95S, N96K, D98L
notes: also called Ab8; huAb 0302-L1H1
B3: h0302-L0H2 (antibody, human IgG4 S228P, kappa, V domains shown)
VH: B2 VH with M48I, V68A, I70L
VL: B1 VL with K24R, Q27E, Y31N, D32Y, D34L, H36F, G95S, N96K, D98L
notes: also called Ab10; huAb 0302-L0H2
B4: h0311-L1H1 (antibody, human IgG4 S228P, kappa, V domains shown)
VH: B1 VH with T67R, T68V, L70I
VL: B1 VL with E1D, T73A
notes: also called Ab14; huAb 0311-L1H1
B5: h0302-L2H2 (antibody, human IgG4 S228P, kappa, V domains shown)
VH: B2 VH with M48I, V68A, I70L
VL: EIVVTQSPATLSLSPGERATLSCRASESVDNYGLSFMNWFQQKPGQAPRLLIYTASNLESGIPARFSGSGSRTDFTLTISSLEPEDFAVYYCQQSKELPWTFGQGTKVEIKR
notes: also called Ab12; huAb 0302-L2H2
B6: h0301-L0H1 (antibody, human IgG4 S228P, kappa)
heavy: not shown
light: EIVLTQSPATLSLSPGERATLSCKASQSVDYDGDNYMNWYQQKPGQAPRLLIYAASNLESGIPARFSGSGSGTDFTLTISSLEPEDFAVYYCHLSNEDLSTFGGGTKVEIKRTVAAPSVFIFPPSDEQLKSGTASVVCLLNNFYPREAKVQWKVDNALQSGNSQESVTEQDSKDSTYSLSSTLTLSKADYEKHKVYACEVTHQGLSSPVTKSFNRGEC
notes: also called Ab2; huAb 0301-L0H1
B7: h0301-L1H1 (antibody, human IgG4 S228P, kappa)
heavy: not shown
light: B6 light with E1N
notes: also called Ab5; huAb 0301-L1H1
B8: h0301-L1H2 (antibody, human IgG4 S228P, kappa)
heavy: not shown
light: B6 light with E1N
notes: also called Ab6; huAb 0301-L1H2
B9: h0301-L0H2 (antibody, human IgG4 S228P, kappa)
heavy: not shown
light: B6 light
notes: also called Ab3; huAb 0301-L0H2

Biological target: human CSF1R on CSF1R (SEQ ID NO: 2)-transfected CHO cells (human, UniProt P07333 20-972)
Experiment: cell-based or functional assay

IC50, inhibition of CSF1-induced CSF1R phosphorylation (head prints 'Human CSF1/Human CSF1R ECD IC50') | IC50, inhibition of IL34-induced CSF1R phosphorylation (head prints 'Human IL34/Human CSF1R ECD IC50') | Binder
0.435 µg/mL | 0.633 µg/mL | B1
0.742 µg/mL | 0.364 µg/mL | B2
0.438 µg/mL | 0.474 µg/mL | B3
0.508 µg/mL | 0.667 µg/mL | B4
0.354 µg/mL | 0.24 µg/mL | B5
0.778 µg/mL | 0.453 µg/mL | B6
0.814 µg/mL | 0.384 µg/mL | B7
0.682 µg/mL | 0.397 µg/mL | B8
1.32 µg/mL | 0.481 µg/mL | B9

Biological target: T1, cynoCSF1R ECD-Fc (cynomolgus)
T1 construct: also called cynomolgus CSF1R ECD
Experiment: ELISA, plate coated with cynoCSF1R ECD-Fc
Description: (§1) Ninety-six well clear-bottom ELISA plates were coated overnight with 1 μg/ml recombinant hCSF1R ECD.506-Fc (SEQ ID NO: 6; FivePrime Therapeutics) or Human M-CSF R Fc Chimera (R&D Systems) in PBS. The next morning, wells were washed four times with 0.05% Tween20 in PBS (PBST) and blocked with Blocker-Blotto (Pierce). Fifty μl of 0.5× serial dilutions of the humanized antibody or parental chimeric antibody, beginning with 2000 ng/ml, diluted 1:1 in Blocker-Blotto were added to the CSF1R-coated wells. After incubation at room temperature (RT) for 90 min, wells were washed four times with PBST, and a 1:5000 dilution of a peroxidase-conjugated Goat anti-Human kappa Light chain antibody (Sigma) in Blocker-Blotto was added to each well. After incubation at RT for 60 min, wells were washed four times with PBST, and 50 μl o-phenylenediamine dihydrochloride peroxidase substrate (Sigma) was added to each well. After incubation at RT for 30 min, A450 values of each well were read directly on a SpectraMaxPlus spectrophotometer with SoftMaxPro software (Molecular Devices).
The binding curve for each humanized antibody binding to cynomolgus CSF1R ECD was determined as described above for human CSF1R, except the wells of the clear-bottom ELISA plates were coated overnight with 2 μg/ml recombinant cynoCSF1R ECD-Fc (FivePrime Therapeutics, SEQ ID NO: 8, but without the 19 amino acid leader sequence).

EC50 | Binder
0.0175 µg/mL | B1
1.06 µg/mL | B2
0.155 µg/mL | B3
0.0309 µg/mL | B4
0.018 µg/mL | B5
0.0144 µg/mL | B6
0.0167 µg/mL | B7
0.0166 µg/mL | B8
0.0138 µg/mL | B9

Biological target: T2, hCSF1R ECD.506-Fc (human)
T2 construct: also called human CSF1R ECD-Fc fusion protein; human CSF1R ECD
Experiment: ELISA, plate coated with human CSF1R ECD-Fc
Description: as §1

EC50 | Binder
0.0115 µg/mL | B1
0.0214 µg/mL | B2
0.0179 µg/mL | B3
0.0143 µg/mL | B4
0.0101 µg/mL | B5
0.0142 µg/mL | B6
0.0165 µg/mL | B7
0.0162 µg/mL | B8
0.0148 µg/mL | B9

Biological target: T1, cynoCSF1R ECD-Fc
Experiment: competition ELISA, blocking of human CSF1 binding to cynoCSF1R ECD-Fc
Description: The humanized antibodies, along with the parental chimeric antibodies (cAbs), were tested for their ability to block human CSF1 binding to human and cynomolgus CSF1R ECD, as follows.
Recombinant Human CSF1 (M-CSF; R&D Systems) was biotinylated using an NH₂-Biotin Labeling Kit (Dojindo Molecular Technologies). One hundred μl of 1 μg/ml biotinylated CSF1 in PBST/0.1% BSA was added to the wells of Reacti-Bind Streptavidin coated plates (Pierce) pre-blocked with SuperBlock blocking buffer (Pierce) according to the manufacturer's instructions. Fifty μl of 0.5× serial dilutions of the humanized antibody or parental chimeric antibody, beginning with 2000 ng/ml, was incubated with 50 ng/ml hCSF1R ECD.506-Fc (SEQ ID NO: 6; FivePrime Therapeutics) or 50 ng/ml cynoCSF1R ECD-Fc (FivePrime Therapeutics, SEQ ID NO: 8, but without the 19 amino acid leader sequence) in 100 μl PBST/0.1% BSA for 90 min at RT, after which the admix was transferred to one or more wells of a ligand-coated plate. After 90 min at RT, wells were washed with PBST, and a 1:5000 dilution of an Fc-fragment-specific peroxidase-conjugated goat anti-human IgG (Jackson Immuno Research) in PBST/0.1% BSA was added to each well. After incubation at RT for 60 min, wells were washed with PBST/0.1% BSA, and o-phenylenediamine dihydrochloride peroxidase substrate (Sigma) was added to each well. After incubation at RT for 30 min, A450 values of each well were read directly on a SpectraMaxPlus spectrophotometer with SoftMaxPro software (Molecular Devices).

IC50 | Binder
0.026 µg/mL | B1
0.0605 µg/mL | B2
0.0247 µg/mL | B4
0.838 µg/mL | B5
0.0274 µg/mL | B6
0.0311 µg/mL | B7
0.0278 µg/mL | B8
0.028 µg/mL | B9

Biological target: T1, cynoCSF1R ECD-Fc
Experiment: competition ELISA, blocking of human IL34 binding to cynoCSF1R ECD-Fc

IC50 | Binder
0.0408 µg/mL | B1
0.676 µg/mL | B2
0.248 µg/mL | B3
0.0537 µg/mL | B4
0.279 µg/mL | B5
0.0364 µg/mL | B6
0.0424 µg/mL | B7
0.0365 µg/mL | B8
0.0374 µg/mL | B9

Biological target: T3, mCSF1R ECD-Fc (mouse)
T3 construct: also called mouse CSF1R ECD
Experiment: ELISA, plate coated with mCSF1R ECD-Fc, detection anti-human kappa-HRP, A450
Description: as §1
The binding curve for each humanized antibody binding to mouse CSF1R ECD was determined as described above for human CSF1R, except the wells of the clear-bottom ELISA plates were coated overnight with 2 μg/ml recombinant mCSF1R ECD-Fc (FivePrime Therapeutics, SEQ ID NO: 93).

binding result | Binder
no binding (tested: 2000 ng/ml) | B1
no binding (tested: 2000 ng/ml) | B2
no binding (tested: 2000 ng/ml) | B3
no binding (tested: 2000 ng/ml) | B4
no binding (tested: 2000 ng/ml) | B5
no binding (tested: 2000 ng/ml) | B6
no binding (tested: 2000 ng/ml) | B7
no binding (tested: 2000 ng/ml) | B8
no binding (tested: 2000 ng/ml) | B9

Biological target: T4, hCSF1R ECD.506 (human, UniProt P07333 20-506)
T4 construct: also called human CSF1R ECD
Experiment: SPR Biacore T100, antibody captured on anti-human IgG, hCSF1R ECD.506 as analyte, 1:1 model
Description: The kₐ, kd, and KD for binding to human CSF1R ECD was determined for each of the humanized antibodies as follows.
Binding kinetics of anti-CSF1R humanized antibodies to CSF1R ECD was determined using Biacore T100 Surface Plasmon Resonance (SPR) (GE Healthcare Life Sciences, Piscataway, N.Y.). Each of the humanized anti-CSF1R antibodies was captured on a CM5 sensor chip immobilized with anti-Human IgG antibody using the Human antibody capture kit (GE Healthcare Life Sciences, Piscataway, N.Y.) at 150 RU so that the Rmax value for hCSF1R ECD.506 (SEQ ID NO: 5) binding was 100 RU. Rmax values of less than 150 RU are recommended for accurately determining kinetic values. […] The association constant, dissociation constant, affinity, and binding capacity of each of the Fabs for human CSF1R ECD was calculated using the Biacore T100 Evaluation software package using the 1:1 binding model.

Kd | koff | kon | Binder
0.35 nM | 0.000473 s⁻¹ | 1.34e+06 M⁻¹ s⁻¹ | B1
1.17 nM | 0.00404 s⁻¹ | 3.47e+06 M⁻¹ s⁻¹ | B2
0.53 nM | 0.00179 s⁻¹ | 3.4e+06 M⁻¹ s⁻¹ | B3
0.5 nM | 0.000664 s⁻¹ | 1.32e+06 M⁻¹ s⁻¹ | B4
0.46 nM | 0.00084 s⁻¹ | 1.84e+06 M⁻¹ s⁻¹ | B5
0.34 nM | 0.00122 s⁻¹ | 3.56e+06 M⁻¹ s⁻¹ | B6
0.32 nM | 0.000921 s⁻¹ | 2.87e+06 M⁻¹ s⁻¹ | B7
0.25 nM | 0.000742 s⁻¹ | 2.95e+06 M⁻¹ s⁻¹ | B8
0.28 nM | 0.00066 s⁻¹ | 2.32e+06 M⁻¹ s⁻¹ | B9
